Experimental data: article PMC7166197 (Molecular cell, 2020)

Target: RNA polymerase β subunit of Escherichia coli (Escherichia coli, UniProt P0A8V2 1-1342)
Experiment: cryo-EM structure

RNA polymerase β subunit of Escherichia coli, sequence (P0A8V2 whole entry): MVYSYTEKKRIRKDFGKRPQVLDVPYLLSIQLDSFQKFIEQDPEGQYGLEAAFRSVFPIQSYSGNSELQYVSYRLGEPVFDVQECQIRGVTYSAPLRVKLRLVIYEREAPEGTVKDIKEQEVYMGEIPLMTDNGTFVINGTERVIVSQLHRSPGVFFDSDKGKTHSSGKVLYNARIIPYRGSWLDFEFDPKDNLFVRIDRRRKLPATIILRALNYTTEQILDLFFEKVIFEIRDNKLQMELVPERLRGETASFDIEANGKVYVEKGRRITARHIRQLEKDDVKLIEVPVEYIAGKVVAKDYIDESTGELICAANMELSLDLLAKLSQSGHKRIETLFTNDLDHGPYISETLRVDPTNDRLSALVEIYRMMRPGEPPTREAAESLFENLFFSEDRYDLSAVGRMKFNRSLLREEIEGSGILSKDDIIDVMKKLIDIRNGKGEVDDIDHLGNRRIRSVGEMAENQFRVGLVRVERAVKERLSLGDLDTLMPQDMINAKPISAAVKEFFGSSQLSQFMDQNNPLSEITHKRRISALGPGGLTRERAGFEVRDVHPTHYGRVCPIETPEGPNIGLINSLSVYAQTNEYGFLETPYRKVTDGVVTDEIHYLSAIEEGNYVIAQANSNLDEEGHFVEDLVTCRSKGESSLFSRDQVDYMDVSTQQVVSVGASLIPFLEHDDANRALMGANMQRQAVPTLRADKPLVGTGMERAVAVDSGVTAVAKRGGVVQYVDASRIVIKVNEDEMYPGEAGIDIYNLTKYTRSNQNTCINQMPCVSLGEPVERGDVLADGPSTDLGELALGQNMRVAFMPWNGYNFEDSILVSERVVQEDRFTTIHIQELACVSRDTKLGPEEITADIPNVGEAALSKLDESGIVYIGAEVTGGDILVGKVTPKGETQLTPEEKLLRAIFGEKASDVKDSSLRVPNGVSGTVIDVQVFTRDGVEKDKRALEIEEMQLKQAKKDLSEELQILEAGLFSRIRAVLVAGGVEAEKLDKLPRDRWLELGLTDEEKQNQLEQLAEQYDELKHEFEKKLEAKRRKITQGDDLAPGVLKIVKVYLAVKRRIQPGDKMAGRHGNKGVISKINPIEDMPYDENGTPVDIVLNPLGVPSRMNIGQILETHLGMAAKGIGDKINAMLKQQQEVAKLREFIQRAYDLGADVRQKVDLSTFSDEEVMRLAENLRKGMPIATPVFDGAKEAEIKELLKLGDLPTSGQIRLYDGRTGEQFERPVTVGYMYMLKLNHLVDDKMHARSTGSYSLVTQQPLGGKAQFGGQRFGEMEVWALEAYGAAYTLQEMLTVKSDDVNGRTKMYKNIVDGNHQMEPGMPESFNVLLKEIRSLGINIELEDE

B1: TraR (natural protein, Escherichia coli)
chain: SDEADEAYSVTEQLTMTGINRIRQKINAHGIPVYLCEACGNPIPEARRKIFPGVTLCVECQAYQERQRKHYA
Question: Does B1 bind?
Answer: binds
